Results: US20250277199, “NOVEL CRISPR-CAS NUCLEASES FROM METAGENOMES” (Brain Biotech AG, published 2025)

Target: T1, BMC14 (uncultured bacterium (metagenome))
T1 chain: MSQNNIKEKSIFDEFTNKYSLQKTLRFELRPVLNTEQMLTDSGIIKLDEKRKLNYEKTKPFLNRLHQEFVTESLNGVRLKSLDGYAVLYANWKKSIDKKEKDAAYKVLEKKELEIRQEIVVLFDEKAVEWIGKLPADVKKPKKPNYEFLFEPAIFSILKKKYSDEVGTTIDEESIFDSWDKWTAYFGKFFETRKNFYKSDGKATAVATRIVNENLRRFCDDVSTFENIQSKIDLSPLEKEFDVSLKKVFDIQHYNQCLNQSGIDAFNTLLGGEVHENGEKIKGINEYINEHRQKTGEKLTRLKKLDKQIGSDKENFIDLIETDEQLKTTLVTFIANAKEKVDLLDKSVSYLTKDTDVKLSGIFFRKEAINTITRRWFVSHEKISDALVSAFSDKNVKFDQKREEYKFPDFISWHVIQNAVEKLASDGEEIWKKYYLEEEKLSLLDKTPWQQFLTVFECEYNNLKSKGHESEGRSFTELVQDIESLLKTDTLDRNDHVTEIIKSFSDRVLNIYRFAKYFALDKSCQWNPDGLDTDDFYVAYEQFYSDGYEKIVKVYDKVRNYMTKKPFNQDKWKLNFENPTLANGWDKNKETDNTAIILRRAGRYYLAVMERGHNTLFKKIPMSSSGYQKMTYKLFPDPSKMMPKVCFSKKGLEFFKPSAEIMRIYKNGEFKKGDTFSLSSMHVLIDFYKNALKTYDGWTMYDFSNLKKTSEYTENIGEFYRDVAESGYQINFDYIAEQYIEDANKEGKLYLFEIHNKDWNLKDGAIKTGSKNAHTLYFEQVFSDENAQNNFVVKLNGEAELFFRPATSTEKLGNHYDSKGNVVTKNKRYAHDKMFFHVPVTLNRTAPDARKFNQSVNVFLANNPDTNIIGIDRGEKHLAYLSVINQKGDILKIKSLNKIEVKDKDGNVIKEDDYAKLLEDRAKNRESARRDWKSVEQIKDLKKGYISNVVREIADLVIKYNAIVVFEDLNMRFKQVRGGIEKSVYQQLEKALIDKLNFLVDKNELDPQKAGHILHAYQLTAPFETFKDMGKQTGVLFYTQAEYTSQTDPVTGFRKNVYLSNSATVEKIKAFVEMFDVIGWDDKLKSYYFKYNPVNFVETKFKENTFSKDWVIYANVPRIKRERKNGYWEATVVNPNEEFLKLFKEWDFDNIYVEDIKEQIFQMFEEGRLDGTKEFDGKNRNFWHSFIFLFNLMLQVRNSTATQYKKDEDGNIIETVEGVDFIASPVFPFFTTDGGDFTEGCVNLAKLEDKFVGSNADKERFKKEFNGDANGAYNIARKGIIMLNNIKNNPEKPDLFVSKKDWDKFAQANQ
Assay: cell_activity; PAM not stated; E. coli depletion, 30 C
In short: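 E. coli carrying arabinose-induced (0.2%) BMC nuclease, grown at 30° C., made electrocompetent and electroporated with 50-100 ng plasmid carrying gRNA against malQ. Transformants plated on selective M9-glucose agar with kanamycin/ampicillin (± nourseothricin), and growth scored after 48 h at 30° C.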

B1: malQ gRNA (BMC stem-loop + 24 nt spacer) ; malQ protospacer (ssRNA ; dsDNA)
RNA: GAUUUCUACUAUUGUAGAUGUGGCGGUACGUUGAUGCAUCGCG
DNA 1: GTGGCGGTACGTTGATGCATCGCG
DNA 2: CGCGATGCATCAACGTACCGCCAC
- activity: > 99.9 % colony reduction
